Measurements from patent US20190142860A1, “NUCLEIC ACID BASED TIA-1 INHIBITORS” (Aquinnah Pharmaceuticals, Inc., priority 2015, published 2019).

How the values were obtained:
[1] = target: Nucleolysin TIA-1 (endogenous mouse TIA1) (mouse) (UniProt P52912); experiment: TIA1 IP-MS, tau KO 2 cortex
[2] = target: Nucleolysin TIA-1 (endogenous mouse TIA1) (mouse) (UniProt P52912); experiment: TIA1 IP-MS, tau KO 1 cortex
[3] = target: Nucleolysin TIA-1 (endogenous mouse TIA1) (mouse) (UniProt P52912); experiment: TIA1 IP-MS, WT1 cortex
[4] = target: Nucleolysin TIA-1 (endogenous mouse TIA1) (mouse) (UniProt P52912); experiment: TIA1 IP-MS, WT2 cortex
[5] = target: Nucleolysin TIA-1 (endogenous mouse TIA1) (mouse) (UniProt P52912); experiment: TIA1 IP-MS, tau KO 3 cortex
[6] = target: Nucleolysin TIA-1 (endogenous mouse TIA1) (mouse) (UniProt P52912); experiment: TIA1 IP-MS, WT3 cortex

Sequence of UniProt P52912 (P52912 whole entry): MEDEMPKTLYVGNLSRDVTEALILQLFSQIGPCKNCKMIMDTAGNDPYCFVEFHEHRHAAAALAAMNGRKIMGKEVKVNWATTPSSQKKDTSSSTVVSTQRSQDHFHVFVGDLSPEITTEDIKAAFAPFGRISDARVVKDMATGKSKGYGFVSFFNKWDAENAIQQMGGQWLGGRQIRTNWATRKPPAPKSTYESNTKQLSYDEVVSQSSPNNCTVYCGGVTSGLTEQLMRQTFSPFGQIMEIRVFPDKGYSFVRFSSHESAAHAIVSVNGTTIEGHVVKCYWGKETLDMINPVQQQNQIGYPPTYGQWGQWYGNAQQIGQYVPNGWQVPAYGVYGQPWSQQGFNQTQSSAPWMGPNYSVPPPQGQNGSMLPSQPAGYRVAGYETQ

total ion current (normalized to TIA1 = 1000) [1] | total ion current (normalized to TIA1 = 1000) [2] | total ion current (normalized to TIA1 = 1000) [3] | total ion current (normalized to TIA1 = 1000) [4] | total ion current (normalized to TIA1 = 1000) [5] | total ion current (normalized to TIA1 = 1000) [6] | Substance
0 | 30.3 | 39.3 | 0 | 0 | 0 | Protein kinase C gamma type (from UniProt P63318 1-697)
0 | 0 | 0 | 0 | 0 | 49.8 | Puromycin-sensitive aminopeptidase (from UniProt Q11011 1-920)
72.5 | 8.48 | 2.62 | 76.3 | 0 | 45.1 | Putative adenosylhomocysteinase 3 (from UniProt Q68FL4 2-613)
104 | 0 | 0 | 80.3 | 0 | 0 | Pyridoxal kinase (from UniProt Q8K183 1-312)
51 | 0 | 0 | 60.4 | 0 | 95.5 | Pyruvate dehydrogenase E1 component subunit beta, mitochondrial (from UniProt Q9D051 31-359)
0 | 0 | 6.73 | 32.5 | 0 | 0 | RNA-binding protein EWS (from UniProt Q61545 1-655)
0 | 17 | 0 | 40.4 | 0 | 0 | Rabphilin-3A (from UniProt P47708 1-681)
185 | 0 | 0 | 126 | 0 | 302 | Ras-related protein Rab-5A (from UniProt Q9CQD1 1-215)
85.5 | 0 | 0 | 194 | 0 | 114 | Septin-5 (from UniProt Q9Z2Q6 1-369)
0 | 7.66 | 5.71 | 0 | 0 | 0 | Serine protease HTRA1 (from UniProt Q9R118 23-480)
0 | 0 | 0 | 65.8 | 0 | 0 | Serine--tRNA ligase, cytoplasmic (from UniProt P26638 1-512)
67.1 | 0 | 0 | 306 | 0 | 71.1 | Serine/arginine-rich splicing factor 2 (from UniProt Q62093 2-221)
0 | 0 | 0 | 41.6 | 0 | 0 | Serine/arginine-rich splicing factor 4 (from UniProt Q8VE97 1-489)
24.6 | 99.4 | 3.65 | 136 | 0 | 79.5 | Serine/threonine-protein phosphatase PP1-beta catalytic subunit (from UniProt P62141 2-327)
30.7 | 0 | 0 | 15.1 | 0 | 25.3 | Sodium/potassium-transporting ATPase subunit beta-2 (from UniProt P14231 1-290)
90.2 | 0 | 0 | 107 | 0 | 190 | Solute carrier family 2, facilitated glucose transporter member 3 (from UniProt P32037 1-493)
0 | 0 | 0 | 22.7 | 0 | 0 | Sorting and assembly machinery component 50 homolog (from UniProt Q8BGH2 1-469)
0 | 0 | 1.59 | 0 | 0 | 0 | Splicing factor 45 (from UniProt Q8JZX4 2-405)
107 | 0 | 0 | 162 | 0 | 0 | Splicing factor U2AF 65 kDa subunit (from UniProt P26369 2-475)
101 | 0 | 0 | 173 | 0 | 77.5 | Stress-70 protein, mitochondrial (from UniProt P38647 47-679)
49 | 0 | 0 | 61.7 | 0 | 86.3 | Succinyl-CoA ligase [ADP-forming] subunit beta, mitochondrial (from UniProt Q9Z2I9 54-463)
